Results taken from publication PMC4004597.

Tests used:
[1] = target: S. cerevisiae Nup57 of the short scNup49-Nup57-Nsp1 complex (S. cerevisiae) (UniProt P48837); assay: SEC
[2] = target: S. cerevisiae Nup57 of the short scNup49-Nup57-Nsp1 complex (S. cerevisiae) (UniProt P48837); assay: AUC
[3] = target: S. cerevisiae Nsp1 of the short scNup49-Nup57-Nsp1 complex (S. cerevisiae) (UniProt P14907); assay: SEC
[4] = target: S. cerevisiae Nsp1 of the short scNup49-Nup57-Nsp1 complex (S. cerevisiae) (UniProt P14907); assay: AUC

Sequence of S. cerevisiae Nup57 of the short scNup49-Nup57-Nsp1 complex (S. cerevisiae) (P48837 whole entry, one chain of several): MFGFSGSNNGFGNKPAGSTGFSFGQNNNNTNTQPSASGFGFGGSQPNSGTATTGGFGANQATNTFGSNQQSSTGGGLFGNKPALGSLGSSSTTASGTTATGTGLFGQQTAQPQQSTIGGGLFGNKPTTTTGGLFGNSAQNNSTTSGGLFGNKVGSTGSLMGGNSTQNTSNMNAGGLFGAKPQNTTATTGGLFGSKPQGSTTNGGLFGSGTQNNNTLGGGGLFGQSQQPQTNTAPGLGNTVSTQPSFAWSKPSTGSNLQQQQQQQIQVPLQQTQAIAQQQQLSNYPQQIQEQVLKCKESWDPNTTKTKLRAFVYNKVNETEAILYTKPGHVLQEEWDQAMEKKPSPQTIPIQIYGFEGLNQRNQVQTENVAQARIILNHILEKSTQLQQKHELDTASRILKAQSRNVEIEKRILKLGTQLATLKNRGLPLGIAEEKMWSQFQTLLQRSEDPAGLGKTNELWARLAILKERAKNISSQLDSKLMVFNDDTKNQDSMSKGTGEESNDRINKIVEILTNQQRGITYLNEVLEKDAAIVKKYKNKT

S. cerevisiae Nup49 of the short scNup49-Nup57-Nsp1 complex (from UniProt Q02199 1-472) (domain or fragment)
stoichiometry N [1]: 1 | stoichiometry N [2]: 1

S. cerevisiae Nup57 of the short scNup49-Nup57-Nsp1 complex (from UniProt P48837 1-541) (domain or fragment)
stoichiometry N [3]: 1 | stoichiometry N [4]: 1
